Stoichiometry N data for 1 substance are collected here from article doi:10.1101/492215.

For the assay, the target named is HTT^1-3144 Q23, C-terminally FLAG-tagged (human). Briefly: SEC-MALS. For orientation: SEC sorts molecules by how far they enter the pores of the column.

For orientation: stoichiometry N means the number of molecules, sites or subunits per partner or assembly.

Turning to “HTT^1-3144 Q23, C-terminally FLAG-tagged (natural protein)”, the stoichiometry N worked out at 2.
